How the values were obtained:
Test in all cases: SPR; Biacore S200; Bcl-2 family proteins immobilised on CM5 (amine coupling or His-Capture Kit); peptides and flag-tagged proteins as analytes, single-cycle kinetics, HBS-EP, 25 °C; 1:1 Langmuir model; absence of binding probed at 100 nM and 3 µM
[1] = biological target: His-tagged human Mcl-1 (human) (UniProt Q07820)
[2] = biological target: Bcl-2 (human) (UniProt P10415)
[3] = biological target: Bcl-xL (human) (UniProt Q07817)
Sequence of Bcl-xL (human) (Q07817 whole entry): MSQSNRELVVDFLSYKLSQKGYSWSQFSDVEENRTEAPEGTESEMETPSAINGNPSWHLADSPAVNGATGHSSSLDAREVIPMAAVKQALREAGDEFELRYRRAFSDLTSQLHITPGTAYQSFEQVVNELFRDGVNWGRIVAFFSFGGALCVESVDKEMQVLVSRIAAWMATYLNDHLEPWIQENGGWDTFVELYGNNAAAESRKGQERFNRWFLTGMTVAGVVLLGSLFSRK

Sequence of Bim BH3 peptide (25-mer, residues 141-165) (peptide): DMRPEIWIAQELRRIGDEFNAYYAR
Sequence of His-tagged human Mcl-1 (human) (Q07820 whole entry): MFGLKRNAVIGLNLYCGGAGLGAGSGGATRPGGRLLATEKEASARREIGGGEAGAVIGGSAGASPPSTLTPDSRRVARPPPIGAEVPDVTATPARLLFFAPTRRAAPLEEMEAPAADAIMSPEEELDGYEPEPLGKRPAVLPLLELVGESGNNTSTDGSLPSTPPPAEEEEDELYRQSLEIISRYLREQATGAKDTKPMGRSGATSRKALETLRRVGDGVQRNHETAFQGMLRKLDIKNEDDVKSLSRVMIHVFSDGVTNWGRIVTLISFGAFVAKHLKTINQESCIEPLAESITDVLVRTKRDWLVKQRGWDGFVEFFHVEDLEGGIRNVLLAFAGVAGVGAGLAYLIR

Question: With Bim (A149I) peptide as the substance, how does the Kd [1] read?
Answer: Its Kd is 0.82 nM.

Question: And the Kd [2]?
Answer: Its Kd is 115 nM.

Question: And the Kd [3]?
Answer: Its Kd is 12.2 nM.

Question: For “Bim BH3 peptide (25-mer, residues 141-165)”, which Kd [1] is on record?
Answer: Its Kd is 0.37 nM.

Question: And the Kd [2]?
Answer: Its Kd is 14.2 nM.

Question: What about the Kd [3] of the same substance?
Answer: The Kd was 3.3 nM.

From article PMC8316464
